Experimental data reported in paper PMC11045720, “Denaturing mass photometry for rapid optimization of chemical protein-protein cross-linking reactions” (Nature Communications, 2024).

Molecular target: the molecule itself
Test: cross-linking; formaldehyde 0.05% to 1% (vol/vol) on 1 mg/mL protein, 20 min at room temperature; read by denaturing mass photometry

B1: L-Glutamate dehydrogenase from bovine liver (enzyme)
chain: not shown
notes: L-Glutamate dehydrogenase from bovine liver (Sigma); also called GLDH; source: bought: Sigma (from bovine liver)
  stoichiometry N: 6
